Measurements: the supplement of paper PMC9112550, “Optimization of the antimicrobial peptide Bac7 by deep mutational scanning” (BMC Biology, 2022)

test system: Escherichia coli TOP10; assay: shrunken log2 fold change of peptide-encoding DNA abundance (4.5 h post-induction vs induction); higher = less antimicrobial activity (less host growth inhibition); settings: time post-induction: 4.5 h; library: site-saturation at positions 5, 18, 19, 20
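Further: peptides expressed intracellularly from a pBAD plasmid library in pooled LB shake-flask culture, induced with 0.3% L-arabinose, DNA abundance read by NGS, three biological replicates, DESeq2 with apeglm shrinkage.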

Sequence | shrunken log2 fold change
RRIRHRPPRLPRPRPRPIAYPRP | -0.149
RRIRSRPPRLPRPRPRPCINPRP | -0.5
RRIRYRPPRLPRPRPRPTDLPRP | -0.396
RRIRGRPPRLPRPRPRPVWPPRP | 0.947
RRIRVRPPRLPRPRPRPGYGPRP | 0.0756
RRIRNRPPRLPRPRPRPYDHPRP | -0.219
RRIRGRPPRLPRPRPRPCGEPRP | 0.931
RRIRERPPRLPRPRPRPMPNPRP | -0.172
RRIRRRPPRLPRPRPRPMNGPRP | -0.0419
RRIRERPPRLPRPRPRPQTKPRP | 0.0765
RRIRMRPPRLPRPRPRPAQFPRP | -0.107
RRIRSRPPRLPRPRPRPASMPRP | 0.0141
RRIRGRPPRLPRPRPRPILCPRP | 0.174
RRIRVRPPRLPRPRPRPDTKPRP | -0.26
RRIRFRPPRLPRPRPRPYFDPRP | -0.489
RRIRSRPPRLPRPRPRPCTRPRP | -0.134
RRIRYRPPRLPRPRPRPFGLPRP | -0.282
RRIRVRPPRLPRPRPRPLNMPRP | -1.14
RRIRYRPPRLPRPRPRPSNLPRP | -0.729
RRIRIRPPRLPRPRPRPEFTPRP | -0.1
RRIRTRPPRLPRPRPRPNQAPRP | 0.00454
RRIRWRPPRLPRPRPRPQFWPRP | 0.105
RRIRFRPPRLPRPRPRPCVEPRP | -0.267
RRIRYRPPRLPRPRPRPVDGPRP | -0.0183
RRIRERPPRLPRPRPRPQAMPRP | 0.00616

Sequence | shrunken log2 fold change
RRIRWRPPRLPRPRPRPSLLPRP | 0.0919
RRIRRRPPRLPRPRPRPGMQPRP | 0.245
RRIRMRPPRLPRPRPRPNMQPRP | 0.0607
RRIRQRPPRLPRPRPRPVKLPRP | -0.0467
RRIRDRPPRLPRPRPRPFACPRP | 0.107
RRIRWRPPRLPRPRPRPNCLPRP | 0.257
RRIRYRPPRLPRPRPRPAQKPRP | -0.0925
RRIRTRPPRLPRPRPRPCPQPRP | -0.312
RRIRTRPPRLPRPRPRPFHMPRP | -0.13
RRIRPRPPRLPRPRPRPPNAPRP | 0.435
RRIRMRPPRLPRPRPRPKFYPRP | 0.0127
RRIRCRPPRLPRPRPRPKEMPRP | 0.0303
RRIRGRPPRLPRPRPRPIHEPRP | -0.135
RRIRNRPPRLPRPRPRPCCMPRP | -0.0549
RRIRHRPPRLPRPRPRPHVVPRP | -0.0954
RRIRNRPPRLPRPRPRPPGCPRP | 0.109
RRIRCRPPRLPRPRPRPPGDPRP | 0.346
RRIRDRPPRLPRPRPRPYSMPRP | -0.0516
RRIRLRPPRLPRPRPRPKWVPRP | -0.25
RRIRVRPPRLPRPRPRPVWRPRP | 0.309
RRIRGRPPRLPRPRPRPTLKPRP | 0.769
RRIRCRPPRLPRPRPRPRSAPRP | 0.0532
RRIRHRPPRLPRPRPRPIQAPRP | -0.0107
RRIRWRPPRLPRPRPRPRCDPRP | 0.429
RRIRQRPPRLPRPRPRPKIQPRP | -0.0232

Sequence | shrunken log2 fold change
RRIRFRPPRLPRPRPRPIGYPRP | -0.363
RRIRPRPPRLPRPRPRPEQEPRP | 0.278
RRIRMRPPRLPRPRPRPPAAPRP | 2.78
RRIRLRPPRLPRPRPRPYNCPRP | -0.053
RRIRIRPPRLPRPRPRPWEPPRP | -0.146
RRIRKRPPRLPRPRPRPWLSPRP | 0.0773
RRIRQRPPRLPRPRPRPMWDPRP | -0.0352
RRIRKRPPRLPRPRPRPAFWPRP | 0.625
RRIRERPPRLPRPRPRPCFCPRP | -0.318
RRIRSRPPRLPRPRPRPPCIPRP | -0.105
RRIRHRPPRLPRPRPRPNWMPRP | 0.00348
RRIRARPPRLPRPRPRPLVRPRP | 0.264
RRIRLRPPRLPRPRPRPIRDPRP | -0.0112
RRIRPRPPRLPRPRPRPHCLPRP | -0.374
RRIRCRPPRLPRPRPRPPQNPRP | 0.801
RRIRHRPPRLPRPRPRPQVHPRP | -0.213
RRIRWRPPRLPRPRPRPWRNPRP | 0.0636
RRIRTRPPRLPRPRPRPRCRPRP | 0.158
RRIRSRPPRLPRPRPRPSLWPRP | 0.122
RRIRIRPPRLPRPRPRPIGEPRP | 0.0399
RRIRERPPRLPRPRPRPLSEPRP | 0.0884
RRIRSRPPRLPRPRPRPTENPRP | 0.148
RRIRVRPPRLPRPRPRPNDDPRP | -0.299
RRIRLRPPRLPRPRPRPHSNPRP | -0.443
RRIRIRPPRLPRPRPRPCAEPRP | -0.358

Sequence | shrunken log2 fold change
RRIRVRPPRLPRPRPRPAHSPRP | 0.0902
RRIRERPPRLPRPRPRPMYNPRP | -0.301
RRIRLRPPRLPRPRPRPRRKPRP | -0.00224
RRIRYRPPRLPRPRPRPNYHPRP | -1.04
RRIRQRPPRLPRPRPRPCIHPRP | -0.734
RRIRYRPPRLPRPRPRPRTFPRP | -0.757
RRIRFRPPRLPRPRPRPLDDPRP | -0.209
RRIRHRPPRLPRPRPRPWYFPRP | -0.813
RRIRHRPPRLPRPRPRPNMYPRP | -0.963
RRIRNRPPRLPRPRPRPGLMPRP | 0.235
RRIRTRPPRLPRPRPRPLPCPRP | 0.0112
RRIRHRPPRLPRPRPRPYKSPRP | -0.00494
RRIRSRPPRLPRPRPRPTQPPRP | 0.215
RRIRWRPPRLPRPRPRPPEFPRP | 0.094
RRIRRRPPRLPRPRPRPQFFPRP | -0.259
RRIRDRPPRLPRPRPRPNDQPRP | -0.154
RRIRARPPRLPRPRPRPIHYPRP | -0.241
RRIRMRPPRLPRPRPRPWQHPRP | 0.0948
RRIRARPPRLPRPRPRPIWVPRP | 0.226
RRIRCRPPRLPRPRPRPMIDPRP | 0.0647
RRIRKRPPRLPRPRPRPCTKPRP | 0.0518
RRIRLRPPRLPRPRPRPGTEPRP | -0.0405
RRIRARPPRLPRPRPRPEVAPRP | 0.214
RRIRYRPPRLPRPRPRPIKIPRP | -0.105
RRIRTRPPRLPRPRPRPVPEPRP | 0.323

Sequence | shrunken log2 fold change
RRIRIRPPRLPRPRPRPYAMPRP | -0.411
RRIRCRPPRLPRPRPRPEWTPRP | 0.154
RRIRRRPPRLPRPRPRPVTDPRP | 0.0723
RRIRKRPPRLPRPRPRPFAHPRP | -0.00992
RRIRARPPRLPRPRPRPFDCPRP | -0.0326
RRIRIRPPRLPRPRPRPFRVPRP | -0.369
RRIRSRPPRLPRPRPRPVWIPRP | 0.0104
RRIRSRPPRLPRPRPRPERMPRP | 0.263
RRIRHRPPRLPRPRPRPPLVPRP | 0.0953
RRIRFRPPRLPRPRPRPHEHPRP | -0.135
RRIRCRPPRLPRPRPRPWITPRP | -1.47
RRIRNRPPRLPRPRPRPYFKPRP | -0.363
RRIRQRPPRLPRPRPRPWFAPRP | -0.16
RRIRNRPPRLPRPRPRPAWVPRP | 0.147
RRIRPRPPRLPRPRPRPYRGPRP | 0.153
RRIRGRPPRLPRPRPRPQVNPRP | 0.0954
RRIRIRPPRLPRPRPRPTDAPRP | -0.0317
RRIRTRPPRLPRPRPRPGTCPRP | -0.00643
RRIRFRPPRLPRPRPRPSTNPRP | -0.147
RRIRMRPPRLPRPRPRPLCGPRP | 0.606
RRIRYRPPRLPRPRPRPHMYPRP | -0.327
RRIRNRPPRLPRPRPRPVQHPRP | -0.258
RRIRTRPPRLPRPRPRPASPPRP | 0.209
RRIRWRPPRLPRPRPRPDDMPRP | -0.147
RRIRIRPPRLPRPRPRPIWHPRP | -0.455

Sequence | shrunken log2 fold change
RRIRWRPPRLPRPRPRPGRYPRP | -0.137
RRIRTRPPRLPRPRPRPNEKPRP | -0.144
RRIRDRPPRLPRPRPRPFICPRP | -0.0606
RRIRIRPPRLPRPRPRPVQLPRP | -0.0585
RRIRIRPPRLPRPRPRPQDVPRP | -0.0964
RRIRFRPPRLPRPRPRPQWWPRP | -0.0312
RRIRYRPPRLPRPRPRPPHHPRP | -0.668
RRIRIRPPRLPRPRPRPPVEPRP | -0.0536
RRIRFRPPRLPRPRPRPTMFPRP | -0.322
RRIRARPPRLPRPRPRPFPFPRP | -0.112
RRIRGRPPRLPRPRPRPGKAPRP | 0.529
RRIRGRPPRLPRPRPRPVSGPRP | 0.731
RRIRIRPPRLPRPRPRPVDLPRP | 0.0939
RRIRFRPPRLPRPRPRPIACPRP | -0.0937
RRIRKRPPRLPRPRPRPVDVPRP | 0.116
RRIRNRPPRLPRPRPRPRIQPRP | 0.0619
RRIRHRPPRLPRPRPRPEKFPRP | -0.0202
RRIRARPPRLPRPRPRPRQCPRP | 0.353
RRIRPRPPRLPRPRPRPPTAPRP | 0.189
RRIRHRPPRLPRPRPRPVIHPRP | -0.283
RRIRWRPPRLPRPRPRPEPEPRP | 0.838
RRIRHRPPRLPRPRPRPMRGPRP | 0.384
RRIRSRPPRLPRPRPRPQQWPRP | -0.175
RRIRSRPPRLPRPRPRPAHKPRP | -0.152
RRIRERPPRLPRPRPRPPQNPRP | 0.232
